Where two headings read alike, the source gives them in different places.

The text below walks through data of publication PMC3953818, “Characterization and regulation of an additional actin-filament-binding site in large isoforms of the stereocilia actin-bundling protein espin” (Journal of Cell Science, 2014).

Experiment [1] deals with F-actin (UniProt P68133). The conditions noted are these: cited from earlier work.
The target of experiment [2] is preformed filaments of rabbit skeletal muscle actin (rabbit) (UniProt P68135). Put plainly: co-sedimentation; purified GST fusion proteins incubated with preformed filaments of rabbit skeletal muscle actin (0.4 mg/ml) for 60 min at 37°C in 10 mM HEPES, 0.1 M KCl, 1 mM dithiothreitol, 0.5 mM ATP, 1 mM MgCl2, 1 mM NaN3, pH 7.4; 150,000 g for 60 min at 4°C; pellet and supernatant on Coomassie-stained SDS gels.

Another experiment has as its target monomeric actin (rabbit) (UniProt P68135).
For experiment [3], the target named is F-actin (UniProt P68133). The following applies: cited from earlier work. This is another data set of the same source.
Experiment [4] deals with His-tagged ankyrin repeat domain (M1-R339 of human espin 1) (human) (UniProt B1AK53). The experiment is described as follows: pull-down; competition: the same pull-down of His–(1-339) on glutathione beads loaded with GST–(340-854), without or with synthetic peptide at 30 µM.
Experiment [5] deals with F-actin (UniProt P68133). The conditions noted are these: cited from earlier work. The source holds these as a separate data set.
Experiment [6] deals with T1, GST–(340-854) human espin 1 fragment missing the V462-K487 xAB-containing peptide (human, UniProt B1AK53 340-854, missing the V462-K487 xAB-containing peptide (ΔxAB)).
T1 construct: human espin 1, residues D340-Y854 with V462-K487 deleted; also called ΔxAB; source: E. coli BL21 Star (DE3), purified (glutathione-Sepharose 4B), loaded on glutathione beads
T1 sequence (looked up): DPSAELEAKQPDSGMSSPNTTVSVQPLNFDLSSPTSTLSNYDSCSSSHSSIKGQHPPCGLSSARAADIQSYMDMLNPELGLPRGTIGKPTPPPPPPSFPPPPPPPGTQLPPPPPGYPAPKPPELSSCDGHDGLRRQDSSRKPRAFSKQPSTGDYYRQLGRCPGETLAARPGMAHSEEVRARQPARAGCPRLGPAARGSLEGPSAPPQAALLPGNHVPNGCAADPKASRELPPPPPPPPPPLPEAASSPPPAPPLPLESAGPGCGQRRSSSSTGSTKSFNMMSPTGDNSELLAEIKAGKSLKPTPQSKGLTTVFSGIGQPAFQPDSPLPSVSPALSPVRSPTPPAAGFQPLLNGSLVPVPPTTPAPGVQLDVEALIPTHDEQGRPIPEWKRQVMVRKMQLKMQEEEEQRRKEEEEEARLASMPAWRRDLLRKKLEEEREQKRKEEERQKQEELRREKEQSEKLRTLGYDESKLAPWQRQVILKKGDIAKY
Put plainly: pull-down; His-tagged ankyrin repeat domain incubated with glutathione-Sepharose beads preloaded with GST or GST–human espin 340–854 fragment in 5 mM HEPES, 10 mM imidazole, 0.1 M KCl, 1 mM dithiothreitol, 3 mM NaN3, pH 7.4, 60 min at 22°C; five washes at 4°C; Coomassie-stained SDS gels. The following applies: both partners purified.

As usually defined, the Kd is the free concentration of one partner at which half of the binding sites on the other are occupied at equilibrium, for simple one-to-one binding. Regarding espin 1 339-720 (from UniProt Q63618), in the experiment with F-actin [1], the Kd is 1000 nM. Turning to “GST fusion with peptide V130-K155 of rat espin 2B (domain or fragment)”, the percent of the fusion protein recovered in the high-speed pellet with F-actin in experiment [2] was determined as 42%. The inhibition of the rate of pyrene-actin polymerization relative to the GST control, concentration series up to 5 µM with monomeric actin (rabbit) was found to be 11%.

Regarding “espin 1 ΔN338 ΔN338 (from UniProt Q63618)”, the Kd in the experiment with F-actin [3] was 70 nM. Regarding “MYO3A tail homology domain I peptide (M3)”, the percent of the His–ankyrin repeat domain still bound to GST–340-854 with 30 µM M3 in experiment [4] amounted to 8%.

Consider “espin smallest isoform (from UniProt Q63618)”, for which, in the experiment with F-actin [5], the Kd is 220 nM.

B1: His-tagged ankyrin repeat domain (M1-R339 of human espin 1) (domain or fragment, UniProt B1AK53 1-339, looked up)
chain: MALEQALQAARQGELDVLRSLHAAGLLGPSLRDPLDALPVHHAARAGKLHCLRFLVEEAALPAAARARNGATPAHDASATGHLACLQWLLSQGGCRVQDKDNSGATVLHLAARFGHPEVVNWLLHHGGGDPTAATDMGALPIHYAAAKGDFPSLRLLVEHYPEGVNAQTKNGATPLYLACQEGHLEVTQYLVQECGADPHARAHDGMTPLHAAAQMGHSPVIVWLVSCTDVSLSEQDKDGATAMHFAASRGHTKVLSWLLLHGGEISADLWGGTPLHDAAENGELECCQILVVNGAELDVRDRDGYTAADLSDFNGHSHCTRYLRTVENLSVEHRVLSR
notes: human espin 1, ankyrin repeat domain, residues M1-R339; Expressed from ProEX HTa or HTb; also called His–(1-339); His–ankyrin repeat domain; source: E. coli BL21 Star (DE3), purified (Ni-NTA agarose); not shown: His tag, N-terminal, kept
B1: in experiment [6], the binding result is given as “binds”.
